# Reference: publication PMC3955222
# B1: CODH IICh (Carboxydothermus hydrogenoformans Z-2901) (protein)
# chain: AKQNLKSTDRAVQQMLDKAKREGIQTVWDRYEAMKPQCGFGETGLCCRHCLQGPCRINPFGDEPKVGICGATAEVIVARGLDRSIAAGAAGHSGHAKHLAHTLKKAVQGKAASYMIKDRTKLHSIAKRLGIPTEGQKDEDIALEVAKAALADFHEKDTPVLWVTTVLPPSRVKVLSAHGLIPAGIDHEIAEIMHRTSMGCDADAQNLLLGGLRCSLADLAGCYMGTDLADILFGTPAPVVTESNLGVLKADAVNVAVHGHNPVLSDIIVSVSKEMENEARAAGATGINVVGICCTGNEVLMRHGIPACTHSVSQEMAMITGALDAMILDYQCIQPSVATIAECTGTTVITTMEMSKITGATHVNFAEEAAVENAKQILRLAIDTFKRRKGKPVEIPNIKTKVVAGFSTEAIINALSKLNANDPLKPLIDNVVNGNIRGVCLFAGCNNVKVPQDQNFTTIARKLLKQNVLVVATGCGAGALMRHGFMDPANVDELCGDGLKAVLTAIGEANGLGGPLPPVLHMGSCVDNSRAVALVAALANRLGVDLDRLPVVASAAEAMHEKAVAIGTWAVTIGLPTHIGVLPPITGSLPVTQILTSSVKDITGGYFIVELDPETAADKLLAAINERRAGLGLPW
# Substrate: O=C=O
# Experiment: protein film electrochemistry, KM for CO2 reduction at -560 mV
# Type: biochemical, Carboxydothermus hydrogenoformans
# Details: [Ni-4Fe-4S] C-cluster active site C-cluster
protein,measurement,value
B1,Km,8.0 ± 1.6 mM
